Experimental data from PMC3536657 (PLoS Pathogens, 2013).
Changes are numbered by the printed parent chain. Names and notes keep the numbering of the source.

B1: mature IgG b12 (antibody, V domains shown)
VH: QVQLVQSGAEVKKPGASVKVSCQASGYRFSNFVIHWVRQAPGQRFEWMGWINPYNGNKEFSAKFQDRVTFTADTSANTAYMELRSLRSADTAVYYCARVGPYSWDDSPQDNYYMDVWGKGTTVIVSS
VL: EIVLTQSPGTLSLSPGERATFSCRSSHSIRSRRVAWYQHKPGQAPRLVIHGVSNRASGISDRFSGSGSGTDFTLTITRVEPEDFALYYCQVYGASSYTFGQGTKLERK
notes: also called mature b12; mature b12 IgG
B2: b12 IgG, germline heavy chain with G100W, paired with the mature light chain (antibody, V domains shown)
VH: QVQLVQSGAEVKKPGASVKVSCKASGYTFTSYAMHWVRQAPGQRLEWMGWINAGNGNTKYSQKFQGRVTITRDTSASTAYMELSSLRSEDTAVYYCARVGPYCWGDSPQDNYYMDVWGKGTTVTVSS
VL: B1 VL
B3: b12 IgG, germline heavy chain with S31N/A52P/G53Y/G100W, paired with the mature light chain (antibody, V domains shown)
VH: B2 VH with S31N, A53P, G54Y
VL: B1 VL
B4: 3BNC60 chimeric IgG, germline heavy chain with mature light chain (antibody, V domains shown)
VH: not shown
VL: DIQMTQSPSSLSARVGDTVTITCQANGYLNWYQQRRGKAPKLLIYDGSKLERGVPARFSGRRWGQEYNLTINNLQPEDVATYFCQVYEFIVPGTRLDLK
notes: also called gHC/mLC (3BNC60)
B5: NIH45-46 chimeric IgG, germline heavy chain with mature light chain (antibody, V domains shown)
VH: not shown
VL: EIVLTQSPATLSLSPGETAIISCRTSQSGSLAWYQQRPGQAPRLVIYSGSTRAAGIPDRFSGSRWGADYNLSISNLESGDFGVYYCQQYEFFGQGTKVQVD
B6: germline IgG b12 (antibody, V domains shown)
VH: B2 VH with W104G
VL: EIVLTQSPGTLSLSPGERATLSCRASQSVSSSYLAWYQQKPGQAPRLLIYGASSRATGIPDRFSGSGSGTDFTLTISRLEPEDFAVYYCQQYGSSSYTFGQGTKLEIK
notes: also called germline b12; soluble germline version of IgG b12

Experiments:
[1] = target: 426c gp140 (HIV-1 clade C, 426c, UniProt M4Q8P8, strain); test: BLI; antibody-capture: IgG (15 µg/mL in PBS) on anti-human IgG Fc capture biosensors; Env in solution at one concentration (1.2 µM in the legend, 1.02 µM in the methods) in 1x kinetics buffer (PBS, 0.01% BSA, 0.02% Tween 20, 0.005% NaN3); details: both partners purified
[2] = target: T1, QH0692 gp140 trimer (HIV-1 clade B, isolate QH0692, UniProt Q5G5V7, strain); test: ELISA; details: both partners purified
T1 construct: also called trimeric QH0692 gp140

[3] = target: T2, SF162 gp140 trimer (HIV-1 clade B, isolate SF162, UniProt P19550, strain); test: ELISA; details: both partners purified
T2 construct: also called trimeric SF162 gp140

[4] = target: T3, SF162 gp120 (HIV-1 clade B, isolate SF162, UniProt P19550); test: cell-based or functional assay
[5] = target: T3, SF162 gp120; test: ELISA; details: both partners purified
[6] = target: T4, HXB2 gp120 (HIV-1 clade B, isolate HXB2, UniProt P04578); test: ELISA; details: both partners purified
T4 construct: also called HXBc2; HXB2 Env; source: bought: Immune Technologies

[7] = target: T5, QH0692 gp120 (HIV-1 clade B, isolate QH0692, UniProt Q5G5V7, strain); test: BLI; details: both partners purified
T5 construct: also called QH0692 Env; recombinant QH0692 Env; source: bought: Immune Technologies

[8] = target: Q168a2 gp140 (HIV-1 clade A, Q168a2, UniProt Q8JDN0, strain); test: BLI; antibody-capture: IgG (15 µg/mL in PBS) on anti-human IgG Fc capture biosensors; Env in solution at one concentration (1.2 µM in the legend, 1.02 µM in the methods) in 1x kinetics buffer (PBS, 0.01% BSA, 0.02% Tween 20, 0.005% NaN3); details: both partners purified
[9] = target: Q461e2 gp140 (HIV-1 clade A, Q461e2, UniProt Q8JDJ9, strain); test: as above; details: both partners purified
[10] = target: 426c gp140 (HIV-1 clade C, 426c, UniProt M4Q8P8, strain); test: as above; details: both partners purified; remark: listed apart in the source

Binder | binding result [3] | binding result [5] | binding result [6] | binding result [7] | also measured
B1 | binds | – | – | – | binding result [1]: binds; binding result [2]: binds; neutralisation of SF162 virions (luciferase reporter cells), IC50 [4]: 0.01 µg/mL
B2 | – | no binding (tested: 30 µg/mL) | no binding (tested: 30 µg/mL) | – | –
B3 | – | no binding (tested: 30 µg/mL) | binds | – | –
B4 | – | – | – | no binding (tested: 100 nM; less than 0.2 nM shift) | –
B5 | – | – | – | no binding (tested: 100 nM; less than 0.2 nM shift) | –
B6 | no binding (tested: 30 µg/mL) | – | – | – | binding result [8]: no binding (tested: 1.2 µM); binding result [9]: no binding (tested: 1.2 µM); binding result [10]: no binding (tested: 1.2 µM)
